Data from doi:10.1101/2023.10.30.564768, “The LexA-RecA* structure reveals a lock-and-key mechanism for SOS activation” (bioRxiv, 2023).
Residue numbers refer to the chain shown, from its start. In names and notes the source's numbering stands.

Assays:
[1] = biological target: T1, His-RecA WT, activated as RecA* (nucleoprotein filament on ssDNA with ATPγS) (E. coli, UniProt P0A7G6 1-353); assay: fluorescence polarisation; competition, fluorescence anisotropy; unlabeled LexA K156A or QM (140 nM to 18.3 µM) spiked into pre-formed RecA* alongside LexA Q161δ; three-parameter dose-response fit; conditions: both partners purified
T1 construct: RecA, E. coli; source: E. coli ΔrecA BLR(DE3), purified (cobalt resin, ammonium sulfate, heparin); not shown: poly-His, N-terminal, kept
T1 sequence (looked up): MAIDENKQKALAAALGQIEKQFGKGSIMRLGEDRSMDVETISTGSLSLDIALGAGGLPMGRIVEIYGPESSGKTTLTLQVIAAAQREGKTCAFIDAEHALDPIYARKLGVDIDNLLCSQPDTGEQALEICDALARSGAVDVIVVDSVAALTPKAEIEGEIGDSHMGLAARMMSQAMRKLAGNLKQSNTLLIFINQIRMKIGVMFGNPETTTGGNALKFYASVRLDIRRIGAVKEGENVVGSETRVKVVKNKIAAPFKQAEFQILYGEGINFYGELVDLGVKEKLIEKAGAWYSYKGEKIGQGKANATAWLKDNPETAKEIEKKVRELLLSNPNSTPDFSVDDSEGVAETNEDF

[2] = biological target: the molecule itself; assay: cryo-EM structure; RecA* pre-formed from 5 µM His-RecA WT and 1 µM GGT 90-mer ssDNA in 70 mM Tris-HCl pH 7.5, 150 mM NaCl, 1 mM MgCl2, 2 mM TCEP, 0.25 mM ATPγS, 20 min; LexA K156A added to 25 µM, 30 min, room temperature

B1: His-LexA K156A (natural protein, E. coli, UniProt P0A7C2 1-202, looked up)
chain: MKALTARQQEVFDLIRDHISQTGMPPTRAEIAQRLGFRSPNAAEEHLKALARKGVIEIVSGASRGIRLLQEEEEGLPLVGRVAAGEPLLAQQHIEGHYQVDPSLFKPNADFLLRVSGMSMKDIGIMDGDLLAVHKTQDVRNGQVVVARIDDEVTVARLKKQGNKVELLPENSEFKPIVVDLRQQSFTIEGLAVGVIRNGDWL
notes: LexA repressor, E. coli; source: E. coli BL21(DE3), purified (cobalt resin, heparin)
[1]
  binding result: binds

B2: untagged LexA K156A (full-length, catalytically inactive) (natural protein, E. coli, UniProt P0A7C2 1-202, looked up)
chain: B1 chain
notes: LexA repressor, E. coli; Used for cryo-EM only; source: E. coli BL21(DE3), purified (cobalt resin, heparin; His-tag removed with thrombin); not shown: poly-His, N-terminal, cleaved
[2]
  binding result: binds

B3: LexA quad-mutant (QM): L89P, Q92W, E152A, K156A (natural protein, E. coli, UniProt P0A7C2 1-202, looked up)
chain: B1 chain with L89P, Q92W, E152A
notes: LexA repressor, E. coli; also called LexA QM; hyperactive LexA variant; source: E. coli BL21(DE3), purified (cobalt resin, heparin)
[1]
  fold weaker binding relative to LexA K156A: ~8 fold
